Measurements reported in article PMC9130538, “Amino acids in transmembrane helix 1 confer major functional differences between human and mouse orthologs of the polyspecific membrane transporter OCT1” (The Journal of Biological Chemistry, 2022).

What was measured:
[1] = target: T1, human OCT1 (Homo sapiens, UniProt O15245); assay: Cellular uptake by HEK293 cells overexpressing human OCT1 (wildtype); conditions: human versus mouse OCT1, stably transfected HEK293
T1 sequence (O15245 1-554): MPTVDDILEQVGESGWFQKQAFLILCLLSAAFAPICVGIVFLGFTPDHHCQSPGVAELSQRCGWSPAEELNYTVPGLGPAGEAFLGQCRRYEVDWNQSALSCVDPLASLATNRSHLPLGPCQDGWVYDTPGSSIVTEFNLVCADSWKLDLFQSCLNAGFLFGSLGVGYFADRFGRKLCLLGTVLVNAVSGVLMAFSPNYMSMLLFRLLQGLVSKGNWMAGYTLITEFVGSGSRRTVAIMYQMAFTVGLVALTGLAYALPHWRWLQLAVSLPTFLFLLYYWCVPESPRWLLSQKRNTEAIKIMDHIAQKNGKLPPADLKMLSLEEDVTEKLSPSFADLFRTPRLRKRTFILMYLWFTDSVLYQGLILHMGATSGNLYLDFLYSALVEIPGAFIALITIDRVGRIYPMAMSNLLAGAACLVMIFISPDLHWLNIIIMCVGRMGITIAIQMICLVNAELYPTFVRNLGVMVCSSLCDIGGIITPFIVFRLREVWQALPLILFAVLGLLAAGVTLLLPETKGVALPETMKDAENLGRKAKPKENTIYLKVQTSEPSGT
Description: Generation and characterization of these cell lines has been described in detail before ([34], [48], [49]). Cells were cultured in Dulbecco’s Modified Eagle’s Medium supplemented with 10% fetal bovine serum, 100 U/ml penicillin, and 100 μg/ml streptomycin at 37 °C and 5% CO2 and were passaged twice a week.
At 48 h prior to the experiment, 6 × 10^5 cells were seeded per well in 12-well plates. When using transiently transfected cells, 5 × 10^5 T-REx-293 cells (Life Technologies) were seeded per well in 12-well plates 72 h prior to the experiment, and they were transfected 24 h later as described previously. Twelve-well plates were precoated with poly-D-lysine.
Cellular uptake experiments were performed at 37 °C and pH 7.4 using HBSS supplemented with 10 mM Hepes (in the following referred to as HBSS+). Cells were washed with 1 ml prewarmed (37 °C) HBSS+, and the uptake was initiated by adding 400 μl of prewarmed HBSS+ containing the substrate. Uptake was allowed for exactly 2 min and afterward stopped by adding 2 ml ice-cold HBSS+. Cells were washed twice with 2 ml ice-cold HBSS+ and lysed with 80% acetonitrile supplemented with internal standard, 0.1 N NaOH/0.1% SDS, or radioimmunoprecipitation buffer for LC–MS/MS, liquid scintillation counting, or fluorescence spectroscopy detection, respectively. Intracellular substrate concentrations were measured as described in the following and were then normalized to the amount of total protein in the samples as measured using the bicinchoninic acid assay ([51]).
For LC–MS/MS quantification of intracellular substrate concentrations, the cell lysate was centrifuged at 16,000g for 15 min, and 350 μl of supernatant was evaporated to dryness under nitrogen flow at 40 °C. The sample was reconstituted with 200 μl 0.1% formic acid, and between 2 and 30 μl were injected into the LC–MS/MS system (Table S1).
An API4000 QTRAP tandem mass spectrometer with ESI interface (AB SCIEX) was used, coupled to a Shimadzu Nexera X2 UHPLC system with LC 30AD pumps and SiL 30AC autosampler (Shimadzu).
Intracellular concentrations of radioactively labeled substrates MPP^+ and TEA^+ were quantified using liquid scintillation counting. To this end, 400 μl cell lysate was transferred into a 20 ml scintillation vial, 9 ml Aquasafe 500 Plus liquid scintillator (both Zinsser Analytics) was added, and the sample was measured in the Scintillation Counter LS6500 (Beckman Coulter).
For both analyses, SPSS Statistics, version 28 (SPSS, Inc, IBM) was used.

[2] = human, estimated based on clinical data, ref [9]; cited from earlier work
[3] = substrate: C[N+](C)(C)CCO; assay: cells, lysate or membranes; conditions: other: HEK293 stably transfected, 2 min uptake, 37 °C, pH 7.4
[4] = substrate: NCCc1c[nH]c2ccc(O)cc12; assay: cells, lysate or membranes; conditions: other: HEK293 stably transfected, 2 min uptake, 37 °C, pH 7.4
[5] = substrate: CC(C)(C)NCC(O)c1ccc(O)c(CO)c1; assay: cells, lysate or membranes; conditions: other: HEK293 stably transfected, 2 min uptake, 37 °C, pH 7.4
[6] = substrate: CNS(=O)(=O)Cc1ccc2[nH]cc(CCN(C)C)c2c1; assay: cells, lysate or membranes; conditions: other: HEK293 stably transfected, 2 min uptake, 37 °C, pH 7.4
[7] = substrate: COc1ccc(CC(C)NCC(O)c2ccc(O)c(NC=O)c2)cc1; assay: cells, lysate or membranes; conditions: other: HEK293 stably transfected, 2 min uptake, 37 °C, pH 7.4
[8] = substrate: CC(Cc1ccc(O)cc1)NCC(O)c1cc(O)cc(O)c1; assay: cells, lysate or membranes; conditions: other: HEK293 stably transfected, 2 min uptake, 37 °C, pH 7.4
[9] = substrate: NCCc1ccc(O)c(O)c1; assay: cells, lysate or membranes; conditions: other: HEK293 stably transfected, 2 min uptake, 37 °C, pH 7.4
[10] = substrate: CC(C)(C)NCC(O)c1ccc(O)c(CO)n1; assay: cells, lysate or membranes; conditions: other: HEK293 stably transfected, 2 min uptake, 37 °C, pH 7.4
[11] = substrate: CC(NCCc1ccc(O)cc1)C(O)c1ccc(O)cc1; assay: cells, lysate or membranes; conditions: other: HEK293 stably transfected, 2 min uptake, 37 °C, pH 7.4
[12] = substrate: CNC(=C[N+](=O)[O-])NCCSCc1ccc(CN(C)C)o1; assay: cells, lysate or membranes; conditions: other: HEK293 stably transfected, 2 min uptake, 37 °C, pH 7.4
[13] = substrate: CC(C)(C)NCC(O)c1cc(O)cc(O)c1; assay: cells, lysate or membranes; conditions: other: HEK293 stably transfected, 2 min uptake, 37 °C, pH 7.4
[14] = substrate: NC[C@H](O)c1ccc(O)c(O)c1; assay: cells, lysate or membranes; conditions: other: HEK293 stably transfected, 2 min uptake, 37 °C, pH 7.4
[15] = substrate: CC(CCc1ccc(O)cc1)NCC(O)c1ccc(O)cc1; assay: cells, lysate or membranes; conditions: other: HEK293 stably transfected, 2 min uptake, 37 °C, pH 7.4
[16] = substrate: C[N+]1(CC2CC2)CC[C@]23c4c5ccc(O)c4O[C@H]2C(=O)CC[C@@]3(O)[C@H]1C5; assay: cells, lysate or membranes; conditions: other: HEK293 stably transfected, 2 min uptake, 37 °C, pH 7.4
[17] = substrate: CNC[C@H](O)c1ccc(O)c(O)c1; assay: cells, lysate or membranes; conditions: other: HEK293 stably transfected, 2 min uptake, 37 °C, pH 7.4
[18] = substrate: O=C(O[C@H]1C[C@H]2CC[C@@H](C1)[N+]21CCCC1)C(O)(c1ccccc1)c1ccccc1; assay: cells, lysate or membranes; conditions: pH 7.4; 37.0 °C
[19] = substrate: [H]/N=C(/N)N/C(=N/[H])NCCc1ccccc1; assay: cells, lysate or membranes; conditions: other: HEK293 stably transfected, 2 min uptake, 37 °C, pH 7.4
[20] = substrate: CC(C)NCC(O)c1cc(O)cc(O)c1; assay: cells, lysate or membranes; conditions: other: HEK293 stably transfected, 2 min uptake, 37 °C, pH 7.4
[21] = substrate: NCCc1c[nH]cn1; assay: cells, lysate or membranes; conditions: other: HEK293 stably transfected, 2 min uptake, 37 °C, pH 7.4

## CC(Cc1ccc(O)cc1)NCC(O)c1cc(O)cc(O)c1 (stereo not drawn) [Fenoterol]
[1]
  fold higher affinity (KM) of human than of mouse OCT1: 8.1 fold
[2]
  clinically relevant (plasma) concentration: 2.18 nM

B1: mouse Oct1 (Mus musculus) (protein)
chain: MPTVDDVLEHVGEFGWFQKQAFLLLCLISASLAPIYVGIVFLGFTPDHHCRSPGVAELSQRCGWSPAEELNYTVPGLGSAGEASFLSQCMKYEVDWNQSTLDCVDPLSSLAANRSHLPLSPCEHGWVYDTPGSSIVTEFNLVCGDAWKVDLFQSCVNLGFFLGSLVVGYIADRFGRKLCLLVTTLVTSLSGVLTAVAPDYTSMLLFRLLQGMVSKGSWVSGYTLITEFVGSGYRRTTAILYQVAFTVGLVGLAGVAYAIPDWRWLQLAVSLPTFLFLLYYWFVPESPRWLLSQKRTTQAVRIMEQIAQKNRKVPPADLKMMCLEEDASERRSPSFADLFRTPSLRKHTLILMYLWFSCAVLYQGLIMHVGATGANLYLDFFYSSLVEFPAAFIILVTIDRIGRIYPIAASNLVAGAACLLMIFIPHELHWLNVTLACLGRMGATIVLQMVCLVNAELYPTFIRNLGMMVCSALCDLGGIFTPFMVFRLMEVWQALPLILFGVLGLSAGAVTLLLPETKGVALPETIEEAENLGRRKSKAKENTIYLQVQTGKSPHT
[3]
  Km: 1286 ± 308 µM
  Vmax: 0.0166 ± 0.0059 µmol/min/mg
  Vmax/Km: 13 µL/min/mg
[4]
  Km: 257 ± 53.3 µM
  Vmax: 0.0162 ± 0.00276 µmol/min/mg
  Vmax/Km: 63.9 µL/min/mg
[5]
  Km: 52.2 ± 7.27 µM
  Vmax: 0.00197 µmol/min/mg
  Vmax/Km: 38.2 µL/min/mg
[6]
  Km: 65.7 ± 17.0 µM
  Vmax: 0.00325 µmol/min/mg
  Vmax/Km: 50.5 µL/min/mg
[7]
  Km: 9.81 ± 2.26 µM
[8]
  Km: 6.90 ± 0.56 µM
[9]
  Km: 285 ± 3.25 µM
  Vmax: 0.00171 µmol/min/mg
  Vmax/Km: 6 µL/min/mg
[10]
  Km: 26.5 ± 12.5 µM
  Vmax: 0.00185 µmol/min/mg
  Vmax/Km: 76.3 µL/min/mg
[11]
  Km: 6.34 ± 0.89 µM
  Vmax: 0.000737 µmol/min/mg
  Vmax/Km: 116 µL/min/mg
[12]
  Km: 84.4 ± 27.0 µM
  Vmax: 0.0058 µmol/min/mg
  Vmax/Km: 74.1 µL/min/mg
[13]
  Km: 60.4 ± 18.7 µM
  Vmax: 0.00295 µmol/min/mg
  Vmax/Km: 48.7 µL/min/mg
[14]
  Km: 409 ± 60.7 µM
  Vmax: 0.00607 µmol/min/mg
  Vmax/Km: 11.6 µL/min/mg
[15]
  Km: 2.54 ± 0.83 µM
  Vmax: 0.000481 µmol/min/mg
  Vmax/Km: 207 µL/min/mg
[16]
  Km: 8.61 ± 3.12 µM
[17]
  Km: 242 ± 38.6 µM
  Vmax: 0.00755 µmol/min/mg
  Vmax/Km: 31.2 µL/min/mg
[18]
  Km: 1.81 ± 1.03 µM
  Vmax: 0.000163 µmol/min/mg
  Vmax/Km: 102 µL/min/mg
[19]
  Km: 7.53 ± 0.63 µM
[20]
  Km: 89.8 ± 9.34 µM
  Vmax: 0.00424 µmol/min/mg
  Vmax/Km: 47.6 µL/min/mg
[21]
  Km: 497 ± 136 µM
  Vmax: 0.00596 µmol/min/mg
  Vmax/Km: 11.9 µL/min/mg

B2: human OCT1 (Homo sapiens) (protein)
chain: MPTVDDILEQVGESGWFQKQAFLILCLLSAAFAPICVGIVFLGFTPDHHCQSPGVAELSQRCGWSPAEELNYTVPGLGPAGEAFLGQCRRYEVDWNQSALSCVDPLASLATNRSHLPLGPCQDGWVYDTPGSSIVTEFNLVCADSWKLDLFQSCLNAGFLFGSLGVGYFADRFGRKLCLLGTVLVNAVSGVLMAFSPNYMSMLLFRLLQGLVSKGNWMAGYTLITEFVGSGSRRTVAIMYQMAFTVGLVALTGLAYALPHWRWLQLAVSLPTFLFLLYYWCVPESPRWLLSQKRNTEAIKIMDHIAQKNGKLPPADLKMLSLEEDVTEKLSPSFADLFRTPRLRKRTFILMYLWFTDSVLYQGLILHMGATSGNLYLDFLYSALVEIPGAFIALITIDRVGRIYPMAMSNLLAGAACLVMIFISPDLHWLNIIIMCVGRMGITIAIQMICLVNAELYPTFVRNLGVMVCSSLCDIGGIITPFIVFRLREVWQALPLILFAVLGLLAAGVTLLLPETKGVALPETMKDAENLGRKAKPKENTIYLKVQTSEPSGT
[4]
  Km: 663 ± 334 µM
  Vmax: 0.00618 µmol/min/mg
  Vmax/Km: 10 µL/min/mg
[5]
  Km: 395 ± 56.8 µM
  Vmax: 0.00138 µmol/min/mg
  Vmax/Km: 3.55 µL/min/mg
[6]
  Km: 65.9 ± 15.1 µM
  Vmax: 0.00418 µmol/min/mg
  Vmax/Km: 63.6 µL/min/mg
[7]
  Km: 13.2 ± 3.71 µM
[8]
  Km: 0.87 ± 0.19 µM
[9]
  Km: 674 ± 194 µM
  Vmax: 0.000718 µmol/min/mg
  Vmax/Km: 1.04 µL/min/mg
[10]
  Km: 29.2 ± 12.2 µM
  Vmax: 0.00202 µmol/min/mg
  Vmax/Km: 73.5 µL/min/mg
[11]
  Km: 0.68 ± 0.12 µM
  Vmax: 0.000153 µmol/min/mg
  Vmax/Km: 226 µL/min/mg
[12]
  Km: 55.7 ± 4.63 µM
  Vmax: 0.00409 µmol/min/mg
  Vmax/Km: 75 µL/min/mg
[13]
  Km: 197 ± 54.1 µM
  Vmax: 0.0008 µmol/min/mg
  Vmax/Km: 3.81 µL/min/mg
[15]
  Km: 2.17 ± 0.59 µM
  Vmax: 0.000336 µmol/min/mg
  Vmax/Km: 162 µL/min/mg
[17]
  Km: 558 ± 411 µM
  Vmax: 0.00112 µmol/min/mg
  Vmax/Km: 2.69 µL/min/mg
[18]
  Km: 17.0 ± 5.46 µM
  Vmax: 0.00141 µmol/min/mg
  Vmax/Km: 86.7 µL/min/mg
[19]
  Km: 18.7 ± 2.64 µM
[20]
  Km: 530 ± 44.9 µM
  Vmax: 0.0016 µmol/min/mg
  Vmax/Km: 3.03 µL/min/mg
[21]
  Km: 4675 ± 2319 µM
  Vmax: 0.00512 µmol/min/mg
  Vmax/Km: 1.27 µL/min/mg
